# In paper PMC4952014:
# Target: immobilized trimeric proteins
# Test: SPR; reverse set-up: JR-FL gp120 (900 RU), JR-FL FD gp145 (1400 RU), SF162 FD gp145 (900 RU) or Soc-V1V2JR-FL amine-coupled to CM5 chips; Siglec-1 injected in 10 mM HEPES, 150 mM NaCl pH 7.4, 30 µl/min; some runs with 50 nM Siglec-1 and lactose, 6'-sialyllactose or sialic acid
substance,measurement,value
Siglec-1 (recombinant protein used for SPR) (from UniProt Q9BZZ2 20-1709) (receptor),fold less affinity than trimeric proteins on immobilized Siglec-1,10 to 20 fold
